Patent publication US20200115464A1

What was measured:
[1] = target: His-tagged cynomolgus FcγRIIB (cynomolgus monkey); assay: SPR steady-state, His-captured FcγR, antibody injected, 25 C
[2] = target: His-tagged human FcγRIIIA (F176) (human) (UniProt P08637); assay: as above
[3] = target: His-tagged cynomolgus FcγRIIA (cynomolgus monkey); assay: as above
[4] = target: His-tagged cynomolgus FcγRIIIA (cynomolgus monkey) (UniProt Q8SPW2); assay: as above
[5] = target: His-tagged human FcγRIIB (human) (UniProt P31994); assay: as above
Chain of His-tagged human FcγRIIB (human) (P31994 46-217 limits assumed): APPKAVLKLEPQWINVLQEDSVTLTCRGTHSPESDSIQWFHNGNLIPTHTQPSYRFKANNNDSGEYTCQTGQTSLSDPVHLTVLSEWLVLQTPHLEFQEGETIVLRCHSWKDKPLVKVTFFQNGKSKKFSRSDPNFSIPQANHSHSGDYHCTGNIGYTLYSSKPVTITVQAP

[6] = target: His-tagged human FcγRIIA (R131) (human) (UniProt P12318); assay: as above
Chain of His-tagged human FcγRIIA (R131) (human) (P12318 36-218 H167R limits assumed): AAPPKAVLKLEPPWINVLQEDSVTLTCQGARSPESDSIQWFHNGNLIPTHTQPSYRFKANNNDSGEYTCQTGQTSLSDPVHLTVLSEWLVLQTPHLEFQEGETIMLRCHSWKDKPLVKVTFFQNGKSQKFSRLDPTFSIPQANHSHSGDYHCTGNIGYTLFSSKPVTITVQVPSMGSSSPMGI

[7] = target: His-tagged human FcγRIIA (H131) (human) (UniProt P12318); assay: as above
Chain of His-tagged human FcγRIIA (H131) (human) (P12318 36-218 limits assumed): as the sequence (P12318 36-218 H167R limits assumed) above, with R132H counted along it

[8] = target: His-tagged human FcγRI (human) (UniProt P12314); assay: SPR (Biacore T200), His-captured human FcγRI, antibody injected, 25 C
Chain of His-tagged human FcγRI (human) (P12314 16-288 limits assumed): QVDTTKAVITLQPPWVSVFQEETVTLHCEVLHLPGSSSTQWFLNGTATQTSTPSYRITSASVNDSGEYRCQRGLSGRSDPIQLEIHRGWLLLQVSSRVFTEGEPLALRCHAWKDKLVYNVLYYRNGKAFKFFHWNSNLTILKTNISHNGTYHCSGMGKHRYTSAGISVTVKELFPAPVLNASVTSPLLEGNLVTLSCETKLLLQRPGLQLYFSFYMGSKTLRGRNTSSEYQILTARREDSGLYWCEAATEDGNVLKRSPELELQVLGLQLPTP

[9] = target: cynomolgus CD3 on T cells of cynomolgus PBMCs (mkT cells) (cynomolgus monkey); assay: FACS, serially diluted antibody on cynomolgus PBMC T cells (mkT cells)
[10] = target: His-tagged human FcγRIIIB (human) (UniProt O75015); assay: SPR steady-state, His-captured FcγR, antibody injected, 25 C
Chain of His-tagged human FcγRIIIB (human) (O75015 17-200 limits assumed): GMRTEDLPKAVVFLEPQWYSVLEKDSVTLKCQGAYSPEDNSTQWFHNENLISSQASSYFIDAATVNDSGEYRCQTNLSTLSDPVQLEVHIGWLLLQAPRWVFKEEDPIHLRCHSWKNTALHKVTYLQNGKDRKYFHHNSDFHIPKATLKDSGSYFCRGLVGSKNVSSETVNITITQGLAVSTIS

[11] = target: His-tagged human FcγRIIIA (V176) (human) (UniProt P08637); assay: as above
Chain of His-tagged human FcγRIIIA (V176) (human) (P08637 17-208 F176V limits assumed): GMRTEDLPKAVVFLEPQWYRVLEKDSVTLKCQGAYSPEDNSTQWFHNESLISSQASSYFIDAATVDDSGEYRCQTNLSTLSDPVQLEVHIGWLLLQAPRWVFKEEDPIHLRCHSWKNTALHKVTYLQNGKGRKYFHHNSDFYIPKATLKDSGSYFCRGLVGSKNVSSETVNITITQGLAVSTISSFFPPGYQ

[12] = target: human CD3 on Jurkat cells (CD3+, CD20- human T-cell line) (human) (UniProt P07766); assay: FACS, serially diluted antibody on Jurkat cells (CD3+, CD20-)
FcR on U937 cells = assay: cell-based or functional assay

Chain of His-tagged cynomolgus FcγRIIIA (cynomolgus monkey) (Q8SPW2 17-208 limits assumed): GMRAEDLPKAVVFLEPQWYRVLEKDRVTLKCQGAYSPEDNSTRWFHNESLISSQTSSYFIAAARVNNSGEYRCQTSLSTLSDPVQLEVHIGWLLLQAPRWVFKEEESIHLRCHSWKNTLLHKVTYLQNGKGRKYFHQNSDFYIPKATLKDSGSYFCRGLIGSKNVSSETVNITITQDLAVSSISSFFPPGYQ
Chain of His-tagged human FcγRIIIA (F176) (human) (P08637 17-208 limits assumed): as the sequence (P08637 17-208 F176V limits assumed) above, with V160F counted along it

## wt-IgG4 CPPC Isotype Control (antibody)
[1]
  Kd: 96 nM
[2]
  Kd: 260 nM
[3]
  Kd: 193 nM
[4]
  Kd: 58 nM
[5]
  Kd: 98 nM
[6]
  Kd: 100 nM
[7]
  Kd: 120 nM
[8]
  Kd: 13.9 nM
  T1/2: 5 min

## Control Antibody 2: antibody SP34 reactive against the epsilon chain of the T3 complex on human T lymphocyte cells
[9]
  EC50: 0.0703 nM

## wt-IgG1 Isotype Control (antibody)
[1]
  Kd: 42 nM
[2]
  Kd: 13 nM
[10]
  Kd: 23 nM
[3]
  Kd: 42 nM
[4]
  Kd: 6 nM
[11]
  Kd: 15 nM
[6]
  Kd: 20 nM
[7]
  Kd: 11 nM
[8]
  Kd: 4.3 nM
  T1/2: 15 min
  koff: 0.000748 s⁻¹
  kon: 174000 M⁻¹ s⁻¹

## Control Antibody 1: monoclonal antibody OKT-3 against human T-cell surface antigens
[12]
  EC50: 0.196 nM
FcR on U937 cells
  U937 Cytotoxicity Human T-cells [M] (EC50, calcein release): 3.04e-12 M
